First the molecules themselves.
B1: Androgen receptor, residues 557 to 632; numbered along this chain, P10275 (parent)
chain: QKTCLICGDEASGCHYGALTCGSCKVFFKRAAEGKQKYLCASRNDCTIDKFRRKNCPSCRLRKCYEAGMTLGARKL

± gives the uncertainty stated by the source.

The data set covers variants of B1. The data set is described as follows: abundance fitness (aPCA) (normalised: wild type 0, dead -1); higher = more abundant; growth selection in yeast, the domain comes from the species named. To be noted: Homo sapiens.
For the variant QKTCLICGDEASGCHYGALTCGSCKVFFKHAAEGKQKYLCASRNDCTIDKFRRKNCPSCRLRKCYEAGMTLGARKL [R30H], the abundance fitness was found to be 0.114 ± 0.074.
In the case of QKTCLICGDEASGCHYGALTCGSCKVFFKAAAEGKQKYLCASRNDCTIDKFRRKNCPSCRLRKCYEAGMTLGARKL [R30A], the abundance fitness was -0.094 ± 0.093.
Regarding QKTCLICGDEASGCHYGALTCGSCKVFFKDAAEGKQKYLCASRNDCTIDKFRRKNCPSCRLRKCYEAGMTLGARKL [R30D], the abundance fitness is -0.066 ± 0.11.
Regarding QKTCLICGDEASGCHYGALTCGSCKVFFKEAAEGKQKYLCASRNDCTIDKFRRKNCPSCRLRKCYEAGMTLGARKL [R30E], the abundance fitness was 0.019 ± 0.14.
On to QKTCLICGDEASGCHYGALTCGSCKVFFKFAAEGKQKYLCASRNDCTIDKFRRKNCPSCRLRKCYEAGMTLGARKL [R30F], for which the abundance fitness was 0.03 ± 0.052.
The value for QKTCLICGDEASGCHYGALTCGSCKVAFKRAAEGKQKYLCASRNDCTIDKFRRKNCPSCRLRKCYEAGMTLGARKL [F27A] was -0.729 ± 0.052; that for QKTCLICGDEASGCHYGALTCGSCKVSFKRAAEGKQKYLCASRNDCTIDKFRRKNCPSCRLRKCYEAGMTLGARKL [F27S] was -0.983 ± 0.071; that for QKTCLICGDEASGCHYGALTCGSCKVGFKRAAEGKQKYLCASRNDCTIDKFRRKNCPSCRLRKCYEAGMTLGARKL [F27G] was -0.884 ± 0.065.
Take QKTCLICGDEASGCHYGALTCGSCKVCFKRAAEGKQKYLCASRNDCTIDKFRRKNCPSCRLRKCYEAGMTLGARKL [F27C]: the abundance fitness was -0.833 ± 0.092.
Take QKTCLICGDEASGCHYGALTCGSCKVWFKRAAEGKQKYLCASRNDCTIDKFRRKNCPSCRLRKCYEAGMTLGARKL [F27W]: the abundance fitness was -0.387 ± 0.046.
The value for QKTCLICGDEASGCHYGALTCGSCKVYFKRAAEGKQKYLCASRNDCTIDKFRRKNCPSCRLRKCYEAGMTLGARKL [F27Y] was -0.598 ± 0.068; that for QKTCLICGDEASGCHYGALTCGSCKVMFKRAAEGKQKYLCASRNDCTIDKFRRKNCPSCRLRKCYEAGMTLGARKL [F27M] was -1.01 ± 0.14; that for QKTCLICGDEASGCHYGALTCGSCKVRFKRAAEGKQKYLCASRNDCTIDKFRRKNCPSCRLRKCYEAGMTLGARKL [F27R] was -0.977 ± 0.067.
Consider QKTCLICGDEASGCHYGALTCGSCKVLFKRAAEGKQKYLCASRNDCTIDKFRRKNCPSCRLRKCYEAGMTLGARKL [F27L], for which the abundance fitness was -0.766 ± 0.058.
In the case of QKTCLICGDEASGCHYGALTCGSCKVHFKRAAEGKQKYLCASRNDCTIDKFRRKNCPSCRLRKCYEAGMTLGARKL [F27H], the abundance fitness was -0.805 ± 0.15.
The value for QKTCLICGDEASGCHYGALTCGSCKVPFKRAAEGKQKYLCASRNDCTIDKFRRKNCPSCRLRKCYEAGMTLGARKL [F27P] was -0.655 ± 0.067; that for QKTCLICGDEASGCHYGALTCGSCKVTFKRAAEGKQKYLCASRNDCTIDKFRRKNCPSCRLRKCYEAGMTLGARKL [F27T] was -0.91 ± 0.07; that for QKTCLICGDEASGCHYGALTCGSCKVQFKRAAEGKQKYLCASRNDCTIDKFRRKNCPSCRLRKCYEAGMTLGARKL [F27Q] was -0.839 ± 0.093.
For the variant QKTCLICGDEASGCHYGALTCGSCKVIFKRAAEGKQKYLCASRNDCTIDKFRRKNCPSCRLRKCYEAGMTLGARKL [F27I], the abundance fitness is -0.548 ± 0.12.
Consider QKTCLICGDEASGCHYGALTCGSCKVEFKRAAEGKQKYLCASRNDCTIDKFRRKNCPSCRLRKCYEAGMTLGARKL [F27E], for which the abundance fitness was -0.73 ± 0.07.
Consider QKTCLICGDEASGCHYGALTCGSCKVDFKRAAEGKQKYLCASRNDCTIDKFRRKNCPSCRLRKCYEAGMTLGARKL [F27D], for which the abundance fitness is -0.519 ± 0.085.
Take QKTCLICGDEASGCHYGALTCGSCKVKFKRAAEGKQKYLCASRNDCTIDKFRRKNCPSCRLRKCYEAGMTLGARKL [F27K]: the abundance fitness is -0.816 ± 0.072.
As for QKTCLICGDEASGCHYGALTCGSCRVFFKRAAEGKQKYLCASRNDCTIDKFRRKNCPSCRLRKCYEAGMTLGARKL [K25R], the abundance fitness was -0.066 ± 0.021.
QKTCLICGDEASGCHYGALTCGSCNVFFKRAAEGKQKYLCASRNDCTIDKFRRKNCPSCRLRKCYEAGMTLGARKL [K25N]: the abundance fitness is 0.014 ± 0.032.
In the case of QKTCLICGDEASGCHYGALTCGSCCVFFKRAAEGKQKYLCASRNDCTIDKFRRKNCPSCRLRKCYEAGMTLGARKL [K25C], the abundance fitness was 0.012 ± 0.027.
As for QKTCLICGDEASGCHYGALTCGSCEVFFKRAAEGKQKYLCASRNDCTIDKFRRKNCPSCRLRKCYEAGMTLGARKL [K25E], the abundance fitness was 0.044 ± 0.026.
Consider QKTCLICGDEASGCHYGALTCGSCVVFFKRAAEGKQKYLCASRNDCTIDKFRRKNCPSCRLRKCYEAGMTLGARKL [K25V], for which the abundance fitness is -0.043 ± 0.023.
The value for QKTCLICGDEASGCHYGALTCGSCHVFFKRAAEGKQKYLCASRNDCTIDKFRRKNCPSCRLRKCYEAGMTLGARKL [K25H] was -0.011 ± 0.035.
On to QKTCLICGDEASGCHYGALTCGSCFVFFKRAAEGKQKYLCASRNDCTIDKFRRKNCPSCRLRKCYEAGMTLGARKL [K25F], for which the abundance fitness is -0.062 ± 0.029.
The value for QKTCLICGDEASGCHYGALTCGSCSVFFKRAAEGKQKYLCASRNDCTIDKFRRKNCPSCRLRKCYEAGMTLGARKL [K25S] was 0.03 ± 0.022; that for QKTCLICGDEASGCHYGALTCGSCGVFFKRAAEGKQKYLCASRNDCTIDKFRRKNCPSCRLRKCYEAGMTLGARKL [K25G] was 0.013 ± 0.021.
Turning to QKTCLICGDEASGCHYGALTCGSCTVFFKRAAEGKQKYLCASRNDCTIDKFRRKNCPSCRLRKCYEAGMTLGARKL [K25T], the abundance fitness is 0.005 ± 0.025.
For QKTCLICGDEASGCHYGALTCGSCIVFFKRAAEGKQKYLCASRNDCTIDKFRRKNCPSCRLRKCYEAGMTLGARKL [K25I], the abundance fitness is -0.24 ± 0.033.
The value for QKTCLICGDEASGCHYGALTCGSCWVFFKRAAEGKQKYLCASRNDCTIDKFRRKNCPSCRLRKCYEAGMTLGARKL [K25W] was -0.077 ± 0.025.
Take QKTCLICGDEASGCHYGALTCGSCDVFFKRAAEGKQKYLCASRNDCTIDKFRRKNCPSCRLRKCYEAGMTLGARKL [K25D]: the abundance fitness is -0.025 ± 0.03.
In the case of QKTCLICGDEASGCHYGALTCGSCMVFFKRAAEGKQKYLCASRNDCTIDKFRRKNCPSCRLRKCYEAGMTLGARKL [K25M] it was 0.013 ± 0.027.
